Laboratory results published in the supplement of paper PMC11246515.
± gives the standard deviation of the averaged measurements.

Test: total protein half-life in vivo (active degradation + dilution); higher = more stable protein
[1] = E. coli NCM3722 delta-clpP delta-lon delta-hslV, growth: N-lim chemostat, doubling time 6 h
[2] = E. coli NCM3722 delta-clpP, growth: N-lim chemostat, doubling time 6 h
[3] = E. coli NCM3722 delta-hslV, growth: N-lim chemostat, doubling time 6 h
[4] = E. coli NCM3722 delta-lon, growth: N-lim chemostat, doubling time 6 h
[5] = E. coli NCM3722 delta-smpB, growth: N-lim chemostat, doubling time 6 h
[6] = wild type E. coli NCM3722, growth: C-lim chemostat, doubling time 3 h
[7] = wild type E. coli NCM3722, growth: C-lim chemostat, doubling time 6 h
[8] = wild type E. coli NCM3722, growth: C-lim chemostat, doubling time 12 h
[9] = wild type E. coli NCM3722, growth: N-lim chemostat, doubling time 6 h
[10] = wild type E. coli NCM3722, growth: N-lim chemostat, doubling time 12 h
[11] = wild type E. coli NCM3722, growth: P-lim chemostat, doubling time 6 h
[12] = wild type E. coli NCM3722, growth: P-lim chemostat, doubling time 12 h

Sequence	total protein half-life in vivo [1]	total protein half-life in vivo [2]	total protein half-life in vivo [3]	total protein half-life in vivo [4]	total protein half-life in vivo [5]	total protein half-life in vivo [6]	total protein half-life in vivo [7]	total protein half-life in vivo [8]	total protein half-life in vivo [9]	total protein half-life in vivo [10]	total protein half-life in vivo [11]	total protein half-life in vivo [12]
MTTRVIALDLDGTLLTPKKTLLPSSIEALARAREAGYQLIIVTGRHHVAIHPFYQALALDTPAICCNGTYLYDYHAKTVLEADPMPVIKALQLIEMLNEHHIHGLMYVDDAMVYEHPTGHVIRTSNWAQTLPPEQRPTFTQVASLAETAQQVNAVWKFALTHDDLPQLQHFGKHVEHELGLECEWSWHDQVDIARGGNSKGKRLTKWVEAQGWSMENVVAFGDNFNDISMLEAAGTGVAMGNADDAVKARANIVIGDNTTDSIAQFIYSHLI	5.16 ± 0.18 h	0.903 ± 0.047 h	0.971 ± 0.12 h	1.19 ± 0.11 h	1.09 ± 0.013 h	2.05 ± 0.096 h	3.48 ± 1.5 h	3.08 ± 0.64 h	1.05 ± 0.02 h	1.52 ± 0.12 h	3 ± 0.29 h	4.84 ± 0.26 h
MGKLTLLLLAILVWLQYSLWFGKNGIHDYTRVNDDVAAQQATNAKLKARNDQLFAEIDDLNGGQEALEERARNELSMTRPGETFYRLVPDASKRAQSAGQNNR [P0A6S5]	5.44 h	3.17 h	4.05 h	4.37 h		2.7 h	4.69 ± 0.55 h		3.47 h	6.03 h		> 16 h
MNFHHLAYWQDKALSLAIENRLFINGEYTAAAENETFETVDPVTQAPLAKIARGKSVDIDRAMSAARGVFERGDWSLSSPAKRKAVLNKLADLMEAHAEELALLETLDTGKPIRHSLRDDIPGAARAIRWYAEAIDKVYGEVATTSSHELAMIVREPVGVIAAIVPWNFPLLLTCWKLGPALAAGNSVILKPSEKSPLSAIRLAGLAKEAGLPDGVLNVVTGFGHEAGQALSRHNDIDAIAFTGSTRTGKQLLKDAGDSNMKRVWLEAGGKSANIVFADCPDLQQAASATAAGIFYNQGQVCIAGTRLLLEESIADEFLALLKQQAQNWQPGHPLDPATTMGTLIDCAHADSVHSFIREGESKGQLLLDGRNAGLAAAIGPTIFVDVDPNASLSREEIFGPVLVVTRFTSEEQALQLANDSQYGLGAAVWTRDLSRAHRMSRRLKAGSVFVNNYNDGDMTVPFGGYKQSGNGRDKSLHALEKFTELKTIWISLEA	3.96 ± 0.66 h	> 8 h	1.03 ± 0.13 h		1.11 ± 0.082 h	2.68 ± 0.027 h	2.8 ± 0.14 h	3.22 ± 0.67 h	1.43 ± 0.29 h	1.48 h	4.1373 ± 0.0017 h	6.22 ± 0.066 h
MPSTPEEKKKVLTRVRRIRGQIDALERSLEGDAECRAILQQIAAVRGAANGLMAEVLESHIRETFDRNDCYSREVSQSVDDTIELVRAYLK [P0AAP3]	6.53 ± 0.38 h	5.29 ± 0.36 h	4.99 ± 0.14 h	> 8 h	3.92 ± 0.13 h	2.5 ± 0.24 h	5.52 ± 0.22 h	8.3 ± 1.8 h	4.16 ± 0.36 h	7.59 h	4.67 ± 1.9 h	8.57 ± 0.52 h
MDQKLLTDFRSELLDSRFGAKAISTIAESKRFPLHEMRDDVAFQIINDELYLDGNARQNLATFCQTWDDENVHKLMDLSINKNWIDKEEYPQSAAIDLRCVNMVADLWHAPAPKNGQAVGTNTIGSSEACMLGGMAMKWRWRKRMEAAGKPTDKPNLVCGPVQICWHKFARYWDVELREIPMRPGQLFMDPKRMIEACDENTIGVVPTFGVTYTGNYEFPQPLHDALDKFQADTGIDIDMHIDAASGGFLAPFVAPDIVWDFRLPRVKSISASGHKFGLAPLGCGWVIWRDEEALPQELVFNVDYLGGQIGTFAINFSRPAGQVIAQYYEFLRLGREGYTKVQNASYQVAAYLADEIAKLGPYEFICTGRPDEGIPAVCFKLKDGEDPGYTLYDLSERLRLRGWQVPAFTLGGEATDIVVMRIMCRRGFEMDFAELLLEDYKASLKYLSDHPKLQGIAQQNSFKHT	5.86 ± 0.071 h			5.71 ± 0.19 h	5.91 ± 0.41 h	3.71 h	6.55 ± 0.6 h	> 16 h	5.53 h	9.35 ± 0.68 h	6.024 ± 0.042 h	12.1 ± 1.2 h
MQILLANPRGFCAGVDRAISIVENALAIYGAPIYVRHEVVHNRYVVDSLRERGAIFIEQISEVPDGAILIFSAHGVSQAVRNEAKSRDLTVFDATCPLVTKVHMEVARASRRGEESILIGHAGHPEVEGTMGQYSNPEGGMYLVESPDDVWKLTVKNEEKLSFMTQTTLSVDDTSDVIDALRKRFPKIVGPRKDDICYATTNRQEAVRALAEQAEVVLVVGSKNSSNSNRLAELAQRMGKRAFLIDDAKDIQEEWVKEVKCVGVTAGASAPDILVQNVVARLQQLGGGEAIPLEGREENIVFEVPKELRVDIREVD	5.14 ± 0.44 h	3.68 ± 0.91 h	2.78 ± 0.23 h	3.1 ± 0.29 h	2.44 ± 0.24 h	2.5 ± 0.044 h	3.72 ± 0.34 h	5.14 ± 0.29 h	2.69 ± 0.3 h	3.69 ± 0.062 h	2.89 ± 0.034 h	5.25 ± 0.3 h
MNAVTEGRKVLLEIADLKVHFEIKDGKQWFWQPPKTLKAVDGVTLRLYEGETLGVVGESGCGKSTFARAIIGLVKATDGHVAWLGKELLGMKPDEWRAVRSDIQMIFQDPLASLNPRMTIGEIIAEPLRTYHPKMSRQEVRERVKAMMLKVGLLPNLINRYPHEFSGGQCQRIGIARALILEPKLIICDEPVSALDVSIQAQVVNLLQQLQREMGLSLIFIAHDLAVVKHISDRVLVMYLGHAVELGTYDEVYHNPLHPYTRALMSAVPIPDPDLEKNKTIQLLEGELPSPINPPSGCVFRTRCPIAGPECAKTRPVLEGSFRHSVSCLKVDPL	5.54 ± 0.093 h	5.82 ± 0.9 h	4.61 ± 0.15 h	4.14 ± 0.14 h	6.25 ± 1.4 h	2.65 ± 0.51 h	6.13 ± 1.6 h	10.3 ± 0.15 h	5.03 ± 0.17 h	8.26 ± 0.85 h	5.69 ± 0.078 h	12.15 ± 0.025 h
MSCEELEIVWNNIKAEARTLADCEPMLASFYHATLLKHENLGSALSYMLANKLSSPIMPAIAIREVVEEAYAADPEMIASAACDIQAVRTRDPAVDKYSTPLLYLKGFHALQAYRIGHWLWNQGRRALAIFLQNQVSVTFQVDIHPAAKIGRGIMLDHATGIVVGETAVIENDVSILQSVTLGGTGKSGGDRHPKIREGVMIGAGAKILGNIEVGRGAKIGAGSVVLQPVPPHTTAAGVPARIVGKPDSDKPSMDMDQHFNGINHTFEYGDGI [P0A9D4]	5.17 ± 0.28 h	4.83 ± 0.052 h	4.32 ± 0.11 h	4.85 ± 0.097 h	4.76 ± 0.16 h	3.65 ± 0.071 h	5.49 ± 0.22 h	9.82 ± 0.61 h	5.03 ± 0.5 h	7.88 ± 0.39 h	5.83 ± 0.13 h	11.5 ± 0.77 h
MANFFIDRPIFAWVLAILLCLTGTLAIFSLPVEQYPDLAPPNVRVTANYPGASAQTLENTVTQVIEQNMTGLDNLMYMSSQSSGTGQASVTLSFKAGTDPDEAVQQVQNQLQSAMRKLPQAVQNQGVTVRKTGDTNILTIAFVSTDGSMDKQDIADYVASNIQDPLSRVNGVGDIDAYGSQYSMRIWLDPAKLNSFQMTAKDVTDAIESQNAQIAVGQLGGTPSVDKQALNATINAQSLLQTPEQFRDITLRVNQDGSEVRLGDVATVEMGAEKYDYLSRFNGKPASGLGVKLASGANEMATAELVLNRLDELAQYFPHGLEYKVAYETTSFVKASIEDVVKTLLEAIALVFLVMYLFLQNFRATLIPTIAVPVVLMGTFSVLYAFGYSVNTLTMFAMVLAIGLLVDDAIVVVENVERIMSEEGLTPREATRKSMGQIQGALVGIAMVLSAVFVPMAFFGGTTGAIYRQFSITIVAAMVLSVLVAMILTPALCATLLKPLKKGEHHGQKGFFAWFNQMFNRNAERYEKGVAKILHRSLRWIVIYVLLLGGMVFLFLRLPTSFLPLEDRGMFTTSVQLPSGSTQQQTLKVVEQIEKYYFTHEKDNIMSVFATVGSGPGGNGQNVARMFIRLKDWSERDSKTGTSFAIIERATKAFNQIKEARVIASSPPAISGLGSSAGFDMELQDHAGAGHDALMAARNQLLALAAENPELTRVRHNGLDDSPQLQIDIDQRKAQALGVAIDDINDTLQTAWGSSYVNDFMDRGRVKKVYVQAAAPYRMLPDDINLWYVRNKDGGMVPFSAFATSRWETGSPRLERYNGYSAVEIVGEAAPGVSTGTAMDIMESLVKQLPNGFGLEWTAMSYQERLSGAQAPALYAISLLVVFLCLAALYESWSVPFSVMLVVPLGVIGALLATWMRGLENDVYFQVGLLTVIGLSAKNAILIVEFANEMNQKGHDLFEATLHACRQRLRPILMTSLAFIFGVLPMATSTGAGSGGQHAVGTGVMGGMISATILAIYFVPLFFVLVRRRFPLKPRPE		6.56 ± 0.62 h	6.24 ± 0.45 h	6.05 ± 0.57 h	5.38 ± 0.37 h			12 ± 2.9 h	6.06 ± 0.82 h	12.3 ± 0.86 h	6.36 ± 0.17 h	
MKKIGVILSGCGVYDGSEIHEAVLTLLAISRSGAQAVCFAPDKQQVDVINHLTGEAMTETRNVLIEAARITRGEIRPLAQADAAELDALIVPGGFGAAKNLSNFASLGSECTVDRELKALAQAMHQAGKPLGFMCIAPAMLPKIFDFPLRLTIGTDIDTAEVLEEMGAEHVPCPVDDIVVDEDNKIVTTPAYMLAQNIAEAASGIDKLVSRVLVLAE [P0ABU5]	5.23 ± 0.27 h	4.46 ± 0.24 h	4.76 ± 0.49 h	5.05 ± 0.41 h	4.5 ± 0.09 h		6.9 ± 1.3 h	10.8 ± 0.44 h	4.79 ± 0.54 h	7.44 ± 0.33 h	5.67 ± 0.31 h	13.4 ± 0.84 h
MKVMRTTVATVVAATLSMSAFSVFAEASLTGAGATFPAPVYAKWADTYQKETGNKVNYQGIGSSGGVKQIIANTVDFGASDAPLSDEKLAQEGLFQFPTVIGGVVLAVNIPGLKSGELVLDGKTLGDIYLGKIKKWDDEAIAKLNPGLKLPSQNIAVVRRADGSGTSFVFTSYLAKVNEEWKNNVGTGSTVKWPIGLGGKGNDGIAAFVQRLPGAIGYVEYAYAKQNNLAYTKLISADGKPVSPTEENFANAAKGADWSKTFAQDLTNQKGEDAWPITSTTFILIHKDQKKPEQGTEVLKFFDWAYKTGAKQANDLDYASLPDSVVEQVRAAWKTNIKDSSGKPLY [P0AG82]	4.1 ± 0.22 h	5.18 ± 0.54 h	6.12 ± 0.3 h	6.31 ± 0.76 h	6.08 ± 0.12 h	3.42 ± 0.057 h	6.04 ± 0.31 h	11.7 ± 0.42 h	6.11 ± 0.43 h	12.9 ± 0.66 h	5.67 ± 0.093 h	11.5 ± 0.23 h
MNKSMLAGIGIGVAAALGVAAVASLNVFERGPQYAQVVSATPIKETVKTPRQECRNVTVTHRRPVQDENRITGSVLGAVAGGVIGHQFGGGRGKDVATVVGALGGGYAGNQIQGSLQESDTYTTTQQRCKTVYDKSEKMLGYDVTYKIGDQQGKIRMDRDPGTQIPLDSNGQLILNNKV [P0AB35]	0.776 ± 0.14 h	0.716 h			0.623 h	0.834 h			0.945 h		0.416 h	1.21 h
MNATAAQTKSLEWLNRLRANPKIPLIVAGSAAVAVMVALILWAKAPDYRTLFSNLSDQDGGAIVSQLTQMNIPYRFSEASGAIEVPADKVHELRLRLAQQGLPKGGAVGFELLDQEKFGISQFSEQVNYQRALEGELSRTIETIGPVKGARVHLAMPKPSLFVREQKSPSASVTVNLLPGRALDEGQISAIVHLVSSAVAGLPPGNVTLVDQGGHLLTQSNTSGRDLNDAQLKYASDVEGRIQRRIEAILSPIVGNGNIHAQVTAQLDFASKEQTEEQYRPNGDESHAALRSRQLNESEQSGSGYPGGVPGALSNQPAPANNAPISTPPANQNNRQQQASTTSNSGPRSTQRNETSNYEVDRTIRHTKMNVGDVQRLSVAVVVNYKTLPDGKPLPLSNEQMKQIEDLTREAMGFSEKRGDSLNVVNSPFNSSDESGGELPFWQQQAFIDQLLAAGRWLLVLLVAWLLWRKAVRPQLTRRAEAMKAVQQQAQAREEVEDAVEVRLSKDEQLQQRRANQRLGAEVMSQRIREMSDNDPRVVALVIRQWINNDHE	6.55 h	6.44 h				2.6 ± 0.24 h	4.73 ± 0.44 h	6.98 ± 0.67 h				
